± gives the uncertainty stated by the source.

The data set can be described thus: abundance fitness (aPCA) (normalised: wild type 0, dead -1); higher = more abundant; growth selection in yeast, the domain comes from the species named. Particulars: Saccharomyces cerevisiae (strain ATCC 204508 / S288c).
The substance “E3 ubiquitin-protein ligase RSP5 A347C, P39940” registered an abundance fitness of 0.08 ± 0.095.
On to “E3 ubiquitin-protein ligase RSP5 A347D, P39940”, for which the abundance fitness is -0.025 ± 0.084.
The figure for “E3 ubiquitin-protein ligase RSP5 A347E, P39940” is -0.034 ± 0.056; for “E3 ubiquitin-protein ligase RSP5 A347F, P39940” it is -0.067 ± 0.19.
In the case of “E3 ubiquitin-protein ligase RSP5 A347G, P39940”, the abundance fitness is -0.043 ± 0.047.
Consider “E3 ubiquitin-protein ligase RSP5 A347H, P39940”, for which the abundance fitness was -0.048 ± 0.056.
Substance “E3 ubiquitin-protein ligase RSP5 A347K, P39940” yielded an abundance fitness of 0.008 ± 0.053.
The substance “E3 ubiquitin-protein ligase RSP5 A347L, P39940” displayed an abundance fitness of -0.044 ± 0.045.
“E3 ubiquitin-protein ligase RSP5 A347M, P39940” had an abundance fitness of 0.089 ± 0.064.
With “E3 ubiquitin-protein ligase RSP5 A347N, P39940”, the abundance fitness is -0.034 ± 0.059.
The same measure for “E3 ubiquitin-protein ligase RSP5 A347P, P39940”: -0.115 ± 0.064; for “E3 ubiquitin-protein ligase RSP5 A347Q, P39940”: -0.063 ± 0.055; for “E3 ubiquitin-protein ligase RSP5 A347R, P39940”: -0.031 ± 0.045.
“E3 ubiquitin-protein ligase RSP5 A347V, P39940” gave an abundance fitness of -0.044 ± 0.046.
In turn, “E3 ubiquitin-protein ligase RSP5 A347W, P39940” showed an abundance fitness of -0.316 ± 0.047.
Consider “E3 ubiquitin-protein ligase RSP5 A347Y, P39940”, for which the abundance fitness was -0.128 ± 0.063.
For the substance “E3 ubiquitin-protein ligase RSP5 D351A, P39940”, the abundance fitness is -0.731 ± 0.053.
The figure for “E3 ubiquitin-protein ligase RSP5 D351C, P39940” is -0.256 ± 0.067; for “E3 ubiquitin-protein ligase RSP5 D351E, P39940” it is -0.488 ± 0.052; for “E3 ubiquitin-protein ligase RSP5 D351G, P39940” it is -0.89 ± 0.046.
The figure for “E3 ubiquitin-protein ligase RSP5 D351H, P39940” is -0.574 ± 0.21.
“E3 ubiquitin-protein ligase RSP5 D351K, P39940” had an abundance fitness of -0.748 ± 0.084.
Consider “E3 ubiquitin-protein ligase RSP5 D351L, P39940”, for which the abundance fitness is -1.08 ± 0.059.
The same measure for “E3 ubiquitin-protein ligase RSP5 D351M, P39940”: -0.772 ± 0.13.
The same measure for “E3 ubiquitin-protein ligase RSP5 D351P, P39940”: -1.24 ± 0.15.
In the case of “E3 ubiquitin-protein ligase RSP5 D351Q, P39940”, the abundance fitness is -0.612 ± 0.21.
The same measure for “E3 ubiquitin-protein ligase RSP5 D351R, P39940”: -0.864 ± 0.05; for “E3 ubiquitin-protein ligase RSP5 D351S, P39940”: -0.584 ± 0.057.
For the substance “E3 ubiquitin-protein ligase RSP5 D351T, P39940”, the abundance fitness was -0.966 ± 0.073.
As for “E3 ubiquitin-protein ligase RSP5 D351V, P39940”, the abundance fitness is -1.24 ± 0.068.
The same measure for “E3 ubiquitin-protein ligase RSP5 D351W, P39940”: -1.28 ± 0.097.
The substance “E3 ubiquitin-protein ligase RSP5 D361A, P39940” registered an abundance fitness of -0.269 ± 0.053.
“E3 ubiquitin-protein ligase RSP5 D361C, P39940”: the abundance fitness was -0.183 ± 0.1.
“E3 ubiquitin-protein ligase RSP5 D361E, P39940” yielded an abundance fitness of -0.266 ± 0.053.
The substance “E3 ubiquitin-protein ligase RSP5 D361G, P39940” came in with an abundance fitness of -0.534 ± 0.047.
The substance “E3 ubiquitin-protein ligase RSP5 D361I, P39940” yielded an abundance fitness of -0.632 ± 0.15.

(Values after the Human Domainome abundance scans (Beltran et al. 2025).)
